Assay results published in US7312058B2, “Mutant serine acetyltransferase” (priority 2003, dated 2007).

What was measured:
[1] = test system: serine acetyltransferase (SAT)
Experimental: Acetyl coenzyme A and other chemicals used were from Sigma Chemical Co. (St. Louis, Mo., USA).
The cells were sonicated and the pellet was separated by centrifugation at 13000 rpm. The SAT-containing protein fractions in the resulting supernatant were precipitated by 5 volumes of saturated (NH4)2SO4 and pellets were dissolved in 2 ml of buffer (pH 7.5, 50 mM potassium phosphate and 100 mM KCl). The obtained solution was added to 0.1 ml of reaction mixture (500 mM Tris-HCl (pH 8.5), 5 mM L-serine, 0.1 mM acetyl coenzyme A) and incubated at 37° C. for 10 min. The reaction was stopped by adding 0.3 ml of ethanol followed by centrifugation at 13000 rpm. 0.95 ml of 0.24 mM DTNB (5,5-dithio-bis-2-nitrobenzoate) solution was added to supernatant and mixture was incubated for 15 min. The SAT activity was assayed by measuring the absorbance at 412 nm.

E. coli strain MG1655 = assay: L-cysteine production by test-tube fermentation of strains carrying a mutant cysE plasmid; type: cell-based
Source text: The E. coli strain MG1655 (ATCC47076, ATCC700926) was used as a parental strain for evaluation of effect of enhanced expression of mutant cysE gene on L-cysteine production.
Plasmids pMW-PompC-cysEX (containing mutant cysEX gene encoding a mutant SAT in which Thr167 is replaced with Ala, which is described in the U.S. Pat. No. 6,218,168) and pMW-PompC-cysE5 were introduced into the E. coli strain MG1655. The resulting strains MG1655/pMW-PompC-cysEX and MG1655/pMW-PompC-cysE5 were cultivated overnight with shaking at 34° C. in 2 ml of nutrient broth supplemented with 100 mg/l of ampicillin. 0.2 ml of the obtained cultures were inoculated into 2 ml of a fermentation medium containing ampicillin (100 mg/l) in 20×200 mm test tubes, and cultivated at 34° C. for 42 hours with a rotary shaker at 250 rpm. The composition of the fermentation medium was the following: 15.0 g/l of (NH4)2SO4, 1.5 g/l of KH2PO4, 1.0 g/l of MgSO4, 20.0 g/l of CaCO3, 0.1 mg/l of thiamine, 1% of LB, 4% of glucose, 300 mg/l of L-methionine and 0.5 g/l of Na2S2O3.
After cultivation, the amount of L-cysteine which had accumulated in the medium was determined by the method described by Gaitonde, M. K. (Biochem. J., 104:2, 627-33 (1967)).

## cysE5 (RTRDPARP; randomized region of SAT protein only)
[1]; 25 μM cysteine
  Residual activity in presence 25 μM cysteine, %: 100%
[1]; protein fraction from LE392 cysE::KmR carrying the plasmid, 5 mM L-serine, 0.1 mM acetyl coenzyme A, 37° C., 10 min
  Specific activity, relative units: 900 relative units
[1]; statement from Table 2 and FIG. 5
  sensitivity to feedback inhibition by L-cysteine: no sensitivity to feedback inhibition by L-cysteine
E. coli strain MG1655
  effect of overexpression on cysteine productivity: improved cysteine productivity
